Earlier results on one substance are cited in publication PMC9836287.

The data set concerns the target CEP250 (Homo sapiens) (UniProt Q9BV73).
UniProt Q9BV73, sequence (Q9BV73 whole entry): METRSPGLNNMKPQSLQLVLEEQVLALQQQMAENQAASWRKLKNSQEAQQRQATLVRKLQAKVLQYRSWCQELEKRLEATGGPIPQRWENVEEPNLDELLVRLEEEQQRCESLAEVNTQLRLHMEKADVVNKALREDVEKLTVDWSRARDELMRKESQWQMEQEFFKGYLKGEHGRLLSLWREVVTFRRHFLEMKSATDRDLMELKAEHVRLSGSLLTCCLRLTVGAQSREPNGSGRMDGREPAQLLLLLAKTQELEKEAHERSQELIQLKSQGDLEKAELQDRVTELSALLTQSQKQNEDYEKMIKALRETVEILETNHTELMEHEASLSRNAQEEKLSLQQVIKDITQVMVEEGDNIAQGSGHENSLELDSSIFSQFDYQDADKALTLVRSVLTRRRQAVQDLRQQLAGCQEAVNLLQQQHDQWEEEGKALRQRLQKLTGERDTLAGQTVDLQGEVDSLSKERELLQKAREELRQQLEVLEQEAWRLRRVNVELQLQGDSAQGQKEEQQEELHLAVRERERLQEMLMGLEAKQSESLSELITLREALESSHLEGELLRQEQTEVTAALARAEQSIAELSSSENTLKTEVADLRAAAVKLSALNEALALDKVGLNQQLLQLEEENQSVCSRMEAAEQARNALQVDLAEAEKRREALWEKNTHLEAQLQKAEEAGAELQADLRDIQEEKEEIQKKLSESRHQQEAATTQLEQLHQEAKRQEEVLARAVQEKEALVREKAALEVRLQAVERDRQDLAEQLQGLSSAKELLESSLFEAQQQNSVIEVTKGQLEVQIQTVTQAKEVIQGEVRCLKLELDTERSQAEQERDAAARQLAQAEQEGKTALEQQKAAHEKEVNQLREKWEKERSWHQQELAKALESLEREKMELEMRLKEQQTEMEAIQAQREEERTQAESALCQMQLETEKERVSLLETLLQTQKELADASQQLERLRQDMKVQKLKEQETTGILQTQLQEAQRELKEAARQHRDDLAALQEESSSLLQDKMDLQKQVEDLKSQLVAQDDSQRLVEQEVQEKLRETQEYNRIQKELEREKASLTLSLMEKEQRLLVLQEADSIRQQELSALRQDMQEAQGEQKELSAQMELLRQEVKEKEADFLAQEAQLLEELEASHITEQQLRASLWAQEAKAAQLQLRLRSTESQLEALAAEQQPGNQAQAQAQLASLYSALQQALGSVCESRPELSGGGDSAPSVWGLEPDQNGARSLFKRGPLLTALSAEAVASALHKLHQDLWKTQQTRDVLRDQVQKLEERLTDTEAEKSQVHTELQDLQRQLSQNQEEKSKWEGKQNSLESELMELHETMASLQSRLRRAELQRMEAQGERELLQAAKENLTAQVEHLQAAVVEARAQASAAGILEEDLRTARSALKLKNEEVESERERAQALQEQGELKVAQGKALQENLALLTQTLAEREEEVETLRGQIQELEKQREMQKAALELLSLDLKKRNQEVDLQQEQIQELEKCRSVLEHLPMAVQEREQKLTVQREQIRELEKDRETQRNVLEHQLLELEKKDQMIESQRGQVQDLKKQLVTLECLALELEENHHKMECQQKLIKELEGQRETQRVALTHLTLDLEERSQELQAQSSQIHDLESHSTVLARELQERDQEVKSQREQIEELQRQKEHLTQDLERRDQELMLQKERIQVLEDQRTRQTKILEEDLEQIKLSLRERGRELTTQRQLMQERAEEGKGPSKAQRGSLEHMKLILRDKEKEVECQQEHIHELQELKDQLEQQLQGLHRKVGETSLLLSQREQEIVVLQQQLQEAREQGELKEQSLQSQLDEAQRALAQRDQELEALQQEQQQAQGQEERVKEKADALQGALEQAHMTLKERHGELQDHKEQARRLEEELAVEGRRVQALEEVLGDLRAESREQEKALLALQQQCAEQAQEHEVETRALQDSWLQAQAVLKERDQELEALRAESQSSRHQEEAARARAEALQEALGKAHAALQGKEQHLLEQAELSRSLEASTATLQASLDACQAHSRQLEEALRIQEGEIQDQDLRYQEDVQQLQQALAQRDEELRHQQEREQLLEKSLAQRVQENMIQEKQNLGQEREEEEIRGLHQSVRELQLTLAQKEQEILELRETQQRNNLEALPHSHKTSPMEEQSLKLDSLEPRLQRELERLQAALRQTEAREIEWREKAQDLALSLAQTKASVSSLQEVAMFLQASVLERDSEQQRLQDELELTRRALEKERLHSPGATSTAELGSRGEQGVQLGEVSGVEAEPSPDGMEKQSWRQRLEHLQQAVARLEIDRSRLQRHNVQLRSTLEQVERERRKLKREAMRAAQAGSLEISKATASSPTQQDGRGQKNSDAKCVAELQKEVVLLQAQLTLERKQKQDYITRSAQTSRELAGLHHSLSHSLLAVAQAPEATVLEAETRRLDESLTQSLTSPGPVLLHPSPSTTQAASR

Broadly, the Kd is a measure of binding affinity in units of concentration. As to FKBP12 (from UniProt P62942), the Kd is 40 nM.
